Assay results as given in patent publication US20240400708A1.
Residue numbers refer to the chain shown, from its start. Names and notes keep the numbering of the source. Blank lines part the entries; values can stand above or below the binder they belong to.

Legend:
[1] = biological target: feline FcRn complex (FcRn-α subunit and β-microglobulin) (feline); assay: SPR (Biacore), FcRn on SA chip, pH 7.4
[2] = biological target: feline FcRn complex (FcRn-α subunit and β-microglobulin) (feline); assay: SPR (Biacore), FcRn on SA chip, pH 6
[3] = biological target: Feline FcRn complex (FcRn-alpha subunit and beta-microglobulin) (feline); assay: SPR (Biacore), feline FcRn captured on SA chip, IgG flowed over, pH 6
[4] = biological target: Feline FcRn complex (FcRn-alpha subunit and beta-microglobulin) (feline); assay: SPR (Biacore), feline FcRn captured on SA chip, IgG flowed over, pH 7.4

B1: feline IgG1a mutant ID No. 367: S252Y, S434R, G402R (antibody, part only; not given: Variable domains, not shown: another chain or arm of the molecule)
constant: ASTTAPSVFPLAPSCGTTSGATVALACLVLGYFPEPVTVSWNSGALTSGVHTFPAVLQASGLYSLSSMVTVPSSRWLSDTFTCNVAHPPSNTKVDKTVRKTDHPPGPKPCDCPKCPPPEMLGGPSIFIFPPKPKDTLYISRTPEVTCLVVDLGPDDSDVQITWFVDNTQVYTAKTSPREEQFNSTYRVVSVLPILHQDWLKGKEFKCKVNSKSLPSPIERTISKAKGQPHEPQVYVLPPAQEELSRNKVSVTCLIKSFHPPDIAVEWEITGQPEPENNYRTTPPQLDSDRTYFVYSKLSVDRSHWQRGNTYTCSVSHEALHRHHTQKSLTQSPGK
Kd [1]: 44.8 nM
Kd [2]: 0.885 nM

B2: feline IgG1a mutant ID No. 368: S252Y, S434R, L314K (antibody, part only; not given: Variable domains, not shown: another chain or arm of the molecule)
constant: B1 constant with L200K, R290G
Kd [1]: 25.6 nM
Kd [2]: 1.3 nM

B3: feline IgG1a Fc mutant S428M, S252H (antibody, part only; not given: Variable domains, not shown: another chain or arm of the molecule; small tags and cut ends)
constant: B1 constant with Y138H, R290G, S316M, R322S
Kd [3]: 6.83 nM

B4: feline IgG1a Fc mutant S428Y, S252H (antibody, part only; not given: Variable domains, not shown: another chain or arm of the molecule; small tags and cut ends)
constant: B1 constant with Y138H, R290G, S316Y, R322S
Kd [3]: 6.41 nM

B7: feline IgG1a Fc mutant Q311W, S428L (antibody, part only; not given: Variable domains, not shown: another chain or arm of the molecule; small tags and cut ends)
constant: B1 constant with Y138S, Q197W, R290G, S316L, R322S
Kd [3]: 8.08 nM

B11: feline IgG1a mutant ID No. 378: S252Y, S434R, T403R (antibody, part only; not given: Variable domains, not shown: another chain or arm of the molecule)
constant: B1 constant with R290G, T291R
Kd [1]: 25.8 nM
Kd [2]: 0.859 nM

B12: feline IgG1a mutant ID No. 373: S252Y, S434R, Q311R (antibody, part only; not given: Variable domains, not shown: another chain or arm of the molecule)
constant: B1 constant with Q197R, R290G
Kd [1]: 12.9 nM
Kd [2]: 0.365 nM

B13: feline IgG1a Fc mutant Q311H, S428M (antibody, part only; not given: Variable domains, not shown: another chain or arm of the molecule; small tags and cut ends)
constant: B1 constant with Y138S, Q197H, R290G, S316M, R322S
Kd [3]: 6.58 nM

B15: feline IgG1a Fc mutant Q311Y, S428L (antibody, part only; not given: Variable domains, not shown: another chain or arm of the molecule; small tags and cut ends)
constant: B1 constant with Y138S, Q197Y, R290G, S316L, R322S
Kd [3]: 5.72 nM

B16: feline IgG1a Fc mutant Q311L, S428M (antibody, part only; not given: Variable domains, not shown: another chain or arm of the molecule; small tags and cut ends)
constant: B1 constant with Y138S, Q197L, R290G, S316M, R322S
Kd [3]: 5.7 nM

B18: feline IgG1a Fc mutant Q311M, S428Y (antibody, part only; not given: variable domains, not shown: another chain or arm of the molecule; small tags and cut ends)
constant: B1 constant with Y138S, Q197M, R290G, S316Y, R322S
Kd [3]: 5.72 nM

B19: feline IgG1a mutant ID No. 376: S252Y, S434R, T250Q (antibody, part only; not given: Variable domains, not shown: another chain or arm of the molecule)
constant: B1 constant with T136Q, R290G
Kd [1]: 24.6 nM
Kd [2]: 0.394 nM

B20: feline IgG1a mutant ID No. 375: S252Y, S434R, S254V (antibody, part only; not given: Variable domains, not shown: another chain or arm of the molecule)
constant: B1 constant with S140V, R290G
Kd [1]: 34.1 nM
Kd [2]: 0.551 nM

B24: feline IgG1a Fc mutant Q311K, S428M (antibody, part only; not given: Variable domains, not shown: another chain or arm of the molecule; small tags and cut ends)
constant: B1 constant with Y138S, Q197K, R290G, S316M, R322S
Kd [3]: 6.16 nM

B25: feline IgG1a mutant ID No. 377: S252Y, S434R, T256M (antibody, part only; not given: Variable domains, not shown: another chain or arm of the molecule)
constant: B1 constant with T142M, R290G
Kd [1]: 25.6 nM
Kd [2]: 1.55 nM

B26: feline IgG1a Fc mutant Q311Y, S428M (antibody, part only; not given: Variable domains, not shown: another chain or arm of the molecule; small tags and cut ends)
constant: B1 constant with Y138S, Q197Y, R290G, S316M, R322S
Kd [3]: 5.73 nM

Continued by falling Kd [3], values first:

Kd [3]: 5.66 nM
B9: feline IgG1a Fc mutant Q311M, S428M (antibody, part only; not given: Variable domains, not shown: another chain or arm of the molecule; small tags and cut ends)
constant: B1 constant with Y138S, Q197M, R290G, S316M, R322S

Kd [3]: 5.62 nM
B17: feline IgG1a Fc mutant Q311K, S428L (antibody, part only; not given: variable domains and light chain, not shown: another chain or arm of the molecule; small tags and cut ends)
constant: B1 constant with Y138S, Q197K, R290G, S316L, R322S

Kd [3]: 5.47 nM
B21: feline IgG1a Fc mutant Q311R, S428L (antibody, part only; not given: Variable domains, not shown: another chain or arm of the molecule; small tags and cut ends)
constant: B1 constant with Y138S, Q197R, R290G, S316L, R322S

Kd [3]: 5.46 nM
B5: feline IgG1a Fc mutant S428M, S434R (antibody, part only; not given: variable domains, not shown: another chain or arm of the molecule; small tags and cut ends)
constant: B1 constant with Y138S, R290G, S316M

Kd [3]: 5.28 nM
B28: feline IgG1a Fc mutant Q311R, S428M (antibody, part only; not given: variable domains and light chain, not shown: another chain or arm of the molecule; small tags and cut ends)
constant: B1 constant with Y138S, Q197R, R290G, S316M, R322S

Kd [3]: 4.88 nM
B8: feline IgG1a Fc mutant S428L, S252Y (antibody, part only; not given: Variable domains, not shown: another chain or arm of the molecule)
constant: B1 constant with R290G, S316L, R322S

Kd [3]: 4.65 nM
B23: feline IgG1a Fc mutant S428M, S252W (antibody, part only; not given: variable domains and light chain, not shown: another chain or arm of the molecule; small tags and cut ends)
constant: B1 constant with Y138W, R290G, S316M, R322S

Kd [3]: 3.09 nM
B14: feline IgG1a Fc mutant S428M, S434H (antibody, part only; not given: Variable domains, not shown: another chain or arm of the molecule; small tags and cut ends)
constant: B1 constant with Y138S, R290G, S316M, R322H

Kd [3]: 2.95 nM
B27: feline IgG1a Fc mutant S428Y, S252W (antibody, part only; not given: Variable domains, not shown: another chain or arm of the molecule)
constant: B1 constant with Y138W, R290G, S316Y, R322S

Kd [3]: 2.58 nM
Kd [4]: 43.9 nM
B22: feline IgG1a Fc mutant S428L, S434H (antibody, part only; not given: Variable domains, not shown: another chain or arm of the molecule; small tags and cut ends)
constant: B1 constant with Y138S, R290G, S316L, R322H

Kd [3]: 2.27 nM
B10: feline IgG1a Fc mutant S428Y, S434H (antibody, part only; not given: Variable domains, not shown: another chain or arm of the molecule; small tags and cut ends)
constant: B1 constant with Y138S, R290G, S316Y, R322H

Kd [3]: 0.933 nM
Kd [4]: 22.2 nM
B6: feline IgG1a Fc mutant S428L, S434Y (antibody, part only; not given: Variable domains, not shown: another chain or arm of the molecule; small tags and cut ends)
constant: B1 constant with Y138S, R290G, S316L, R322Y
